This data set is described as follows: soluble on expression in E. coli; label from the status in PepcDB or PDB records.
In the case of “MAHHHHHHMKAFFIGKREYRRVLSLQETIFNAKIARQVSVRRGASKLPLLPDVVILVEHSTPVYTIGRRDTTHGLPPHCSIDVVKTRRGGGITYHGPGQLTMYPIANIQLLWKDCTAEKPRSPIEWFSWALEEAMIQTAAMYHIPTHRFKTGVWADQYKDIPAQKLGAVGLQLGSWVSMHGAGLNVASDLHFFDDIIMCELPDRRATSLSNEMQHRGVAESPPLVQATAPVLLQKFIESLHQQPSCAAPQLVDLSADADWHERVIDTAGISTP”, the “soluble on expression in E. coli” value is reported as “not soluble”.

Regarding “MGSDKIHHHHHHLYSFTIASDTIELVKSLHYSILVLNMEAEEMFSKKQDPFAVKLSEIAGHLQRTSQFFVDFKINGIADVKEFAHKVKDFETAGDDLMHQLIIDLNNAFITPIDREDLLALANSLDDVLDGFEECSAIFEIYNIVQADEHMIRFVDEIHIAVNELALSMDLLVARKLQPMREHVIKVKEQETICDNLRRKSIKALFATETDPIKIIQYKEIYESLESIADYCQDAANVIETIIMKNA”, the “soluble on expression in E. coli” value is “not soluble”. The result for “MEKKFPTVVTIGGRRYVKNNLNRKSEDCKMKLKEALKSFGRRVQKLQMSHCTIEKGTSLHVYKLDDARVIFTKKNKPIGFVVTGKAEEIDKSVYEKASSEINDATGKPNEPGAEERAEKDDASLID” reads “not soluble”; that for “MGSDKIHHHHHHMSSVHHKIIKHKIGLLNLAAELGNVSRACKVMGFSRDTFYRYQAAVETGGVEALIDANRRKPNIKNRVEEATEAAILAFALEQPAFGQVRVSNELRKRGIFVSPSGVRSVWLRQNLESFKKRLSALEKHIAETGAVLTEAQVQALEKKQEDDVAQGEIETAHPGYLGSQDTFYVGTLKGVGRIYQQTFVDTYSKWAAAKLYTNKTPITSADMLNDRVLPFFAEQSMGIIRILTDRGTEYCGKPENHDYQLYLALNDIEHSKTKANHPQTNGICERFHKTILQEFYQVTFRRKIYQSIEELQHDLDDWMAYYNSVRTHQGKMCCGRTPMQTLIDAKEIWDDKITELNN”, “not soluble”; that for “MAKNPKDGESRTFLISVAAELAGMHAQTLRTYDRLGLVSPRRTSGGGRRYSLHDVELLRQVQHLSQDEGVNLAGIKRIIELTSQVEALQSRLQEMAEELAVLRANQRREVAVVPKSTALVVWKPRR”, “soluble”. The result for “MAKTTGILDKSLSRGKTEINLSTFAVLFSEMVLYAQNRSETVTDIHDKIASYGKQVGLRMFDIITLREKGYKRETKLLGMLMFIKSTVWKNLFGKEADKLERSNDDHCTYLLIEKDPMVNTYISVPRDKGVLNCAAFAAGIVEAILESASFKCKVTAHWHNGTAYVIQFDESVIARENSLLDSNR” reads “not soluble”; that for “MWRNSEERENRTSGRSQGSYQEIIGRTWIFRGAHRGRVNKKNIVWHELIGLKVRVVNSTHPGYVGIEGYVIDETRNMLVIAGENKVWKVPKDVCIFEFETWDGTKIKISGEKLVGRPEMRLKKRWRK”, “soluble”; that for “MSMNRQEISDLCVKSLEGRMVGTEAQNIENGNAFYRYFFTNFPDLRVYFKGAEKYTADDVKKSERFDKQGQRILLACHLLANVYTNEEVFKGYVRETINRHRIYKMDPALWMAFFTVFTGYLESVGSLNDQQKAAWMALGKEFNAESQTHLKNSNLPHV”, “soluble”. The result for “MARRNSSIKPVFCFFAEFCMVSTSLWMDTEILPEASALKGDVHCDVAVVGSGIAGLSTAYELSKRDQSVIVIDRKGIASGMTARTSAHLAPLCDDLMSEFRKLRGPEIAKLFYESQAAAVDRIEEIQASETIACDFRRLDGYLFQGHGMPADVLDEELEAVREVGAPVHRLVGVPLKGCENRHVLRYPRQATFHPLKYLAGVAAVCQTHGVRFFANSPVEEVAQGDGDVTLRTAQGQITAGNAVIATNASITDRYQLHSKVAPYRTYVLAFAIARGELPDALYWDTEDPYHYVRLQLGSDDHDVVLIGGEDHKSGEANDAEKRFAKLESWARELIPGLGRVTHRWSGQVLDTIDYAGFIGREPGSERIYLAMGDSGQGLTHGVMGAMLNTSLILGEHNPWSAVYAPGRTPLAAARNFLRENLTILQNLAEYVAPGEIASLEKIEPSEGAILRRGFEKIAAYRDKAGELHLHSASCTHIGCHLHWNSFETCWDCPCHGSIFAPNGQPINAPAVSALRPVKVLEHHHHHH” reads “not soluble”; that for “MLAKRIIPCLDVDKGRVVKGVKFLNLRDAGDPVEVAKRYEEEGADELVFLDITASAEDREIMIDVVKKVAETVFMPFTVGGGIRSLEDMRRLLEAGADKISINTAAVKNPNLIYEGAKRFGSQCIVVAIDAKRKGNSWEVYIHGGRTPTGLDAVEWAKKVESLGAGEILLTSMDRDGTKDGYDIELNRAISEAVNIPVIASGGAGKKEHFYEVFSKTKVEAALAASVFHFREISIPELKEYLLERGINVRPLD”, “soluble”; that for “MKALIVDDEPLARNELQYLLNLNDAIDEIEEAENIEETLEKLLYNTFDLIFLDINLMDESGIDLAQKINKMKRSPHIIFATAHEKFAVKAFELNATDYILKPFEKERINQAVNKVDMAKDKSKNKDKTITPKYIDYSDDERAQTHVLPIEVDERIHILNFTDIIALSVNNGITTIDTTKQSYETTETLNHYEKKLPSSLFIKIHRATIVNKEHIQTIEHWFNYTYQLTLTHEFKYQVSRSYMKTFKQQLGLQ”, “not soluble”. Take “NFCVYMCPYSRVQSVLYDNDTIMTVYDYERGGKVFDPKGIKLWKKPETPNAECTGCELCVKVCPTHIDIRKGMQLECINCLECADAC”: the “soluble on expression in E. coli” value was “not soluble”. The result for “MSLSLSTIICIGMAGSGKTTFMQRLNSHLRAEKTPPYVINLDPAVLRVPYGANIDIRDSIKYKKVMENYQLGPNGAIVTSLNLFSTKIDQVIGLVEQKKDKFQNCIIDTPGQIECFVWSASGAIITESFASSFPTVIAYIVDTPRNSSPTTFMSNMLYACSILYKTKLPMIVVFNKTDVCKADFAKEWMTDFESFQAAIKEDQDLNGDNGLGSGYMSSLVNSMSLMLEEFYSQLDVVGVSSFTGDGFDEFMQCVDKKVDEYDQYYKQEREKALNLKKKKEEMRKQKSLNGLMKDLGLNEKSSAAASDNDSIDAISDLEEDANDGLVDRDEDEGVEREYTFPGEERTKGEVNENSAPDLQRRYQEAMQQVGKTASSETAENIAKYIRNEGHHHHHH” reads “soluble”. Under “GSMFPHHSITESVNYDVKTFGSSLPVKVMEALTLAEVDDQLTINIDEGGWACLVCKEKLIIWKIALSPITKLSVCKELQLPPSDFHWSADLVALSYSSPSGEAHSTQAVAVMVATREGSIRYWPSLAGEDTYTEAFVDSGGDKTYSFLTAVQGGSFILSSSGSQLIRLIPESSGKIHQHILPQGQGMLSGIGRKVSSLFGILSPSSDLTLSSVLWDRERSSFYSLTSSNISKWELDDSSEKHAYSWDINRALKENITDAIWGSESNYEAIKEGVNIRYLDLKQNCDGLVILAAAWHSADNPCLIYYSLITIEDNGCQMSDAVTVEVTQYNPPFQSEDLILCQLTVPNFSNQTAYLYNESAVYVCSTGTGKFSLPQEKIVFNAQGDSVLGAGACGGVPIIFSRNSGLVSITSRENVSILAEDLEGSLASSVAGPNSESMIFETTTKNETIA” stands “soluble”; under “MTMHREPGGERYYYTWAWFEGPDDAAWRVTGHHTDSGEQYRLDWNLAERSLCVTDSLGRTRCHWWDAQGLVTAYRDEAGQMTTFRWSDEERLLLGMTDAQGGKWRYVYDRLGHLTETHDPLGRVEQTQWHPVWHQPETEVDAAGAAWRYEYDERGNLQAVSDPLHQRTVYGYDRHGQVVRITDARGGDKYLQWNEDGQLMRHTDCSGSQTAWFYDERTRLERVTDAESNSTRYSYDGNGHLTEVMFADGRTERYQPDAAGRLVKYTSPAGQITRWQRDGQGRVRRQTDATGRRTAYEYDAYGRLTTLTNENGESYRFRYDVLDRLTEQTDPGGSRRAYGYNALNAVTAVIYGGERGGEIRHGLERDAAGRLTAKTTPETRTEYRYDAADRLLEIRRRRHDAAEGGEPEVIRFSYDSAGNLLSEETAQGVLQHRYDVQGNRTETQMPDGRTLRYLYYGSGHLQQINLGRDVISEFTRDHLHREVQRSQGRLDTRRMYDRTGRLTRKPTCKGMRGVVPETFIDREYAYSGQDELLKKRHSRQGVTDYFYDTTGRITACRNEAYLDSWQYDAAANLLDRRQGETAQAGAGSVVPFNRITSYRGLHYRYDEYGRVVEKRGRNGTQHYRWDAEHRLTEVAVIRGSTVRRYGYVYDAPGRRVEKHELDAEGKPYNRTTFLWDGMRLAQECRLGRSSSLYIYSDQGSHEPLARVDRAAPGEADEVLYYHTDVNGAPEEMTDGRGNIVWEAGYQVWGNLTHEKETRPVQQNLRFQGQYLDRETGLHYNLYRFYDPDIGKFISGDPISIRGGINLYQYAPNPIKWIDPLGLYNGEGQRELGKYHVFHEHNLDITEYGLSDAEHFSRGNQAIYERMKNDPAFRREMQTKYPGVVEHVQPSSGGKFSTESPPGLTWHHENKPGVLSLVDRLDHKTYHKIYHPLEHHHHHH”, “soluble”. Under “MGSDKIHHHHHHMITIKKGLDLPITGEPSREISEHRPAHVALIGYDYVGMKPTMNVKEGDIVAKGQSVFEDKKRAGVIYTAPAAGKVVAIKRGERRVFESLVIAVDPNGAEVEFQRYDSQQLADLDSEVVETQLLASGEWTAFRTRPYSRAPEIGARPHAIFVTAMDTNPLAFDPMLLINEQLQAFNDGLAVLSTLSPKTFVCHHGNSQLTPVAKTAANNVTEYHSFAGKHPAGLAGTHIHFLHPIMRGTSVWTIGYQDVIAIGKLFTSGRLYTRRLLSLAGPAVSNPHVIATERGADIAALTKGNLTAGENRVISGSVLSGRQVFANIAYLGRFDNQVSVLAEGRERPAFHFFTPGANRFSKLPIYISQFFGGKKYNFTTTSNGSPRAMVPIGVYEEVMPQDYLPTQLLRALIVEDIVTAVDLGVLELDEEDLALCTFVSPGKYEFGDILRDNLTRIELEG” stands “not soluble”; under “MSATRHRSDGHEEIVALDALPLSAAIRRRELSCREVMQAYLAQIERFNPRVNAIVSLQAESRLLTQADERDRQLARGEWLGWMHGMPQAIKDLAATSGIPTTLGSPLFAGQVPEHDAIVVERVKSSGAIVIGKTNVPEFGLGSQTYNPLFGTTRNAYDPARIAGGSSGGAAVALALRMLPVADGSDMMGSLRNPAAYNNVYGFRPSQGRVPHGPQAELFVQQLATEGPMGRSVADLARLLATQAGYDPRCPLSLRDDPRRFADDLGRDFRGARLGWLGDYAGYLPMEEGVLELCEAALGDFAELGCDVEACLPDYPLERLWRTWLVHRQWLVQGSLGELYADPARRVRLKPEAQWEVESGLGLGAAEVYRASLDRSDWYRALARLFERYDFLLLPSAQVFPFDAETAWPRQVAGRPMDTYHRWMEVVIGPTLAGLPAISVPIGFGAAGLPMGLQIIGPAQADLAVLQLAHAHEGLTRWVSRRPPAMLEAPGGI”, “not soluble”.

Turning to “MTNLTFYAKIGISEEEHDSFVKEHQQISVLQGSDWAKIKNQWQNERIGIYKEEKQVASLSLLIKLLPLGRSIIYIPRGPVMDYLDRDLVAFTMKTLKDYGKTKKALFIKYDPAILLKQYALGQEEEEKPLALAAIKNLQEAGVHWTGLTMEIADSIQPRFQANIYTQENLEMQFPKHTRRLIKDAKQRGVKTYRVSQSELHKFSKIVSLTEKRKNISLRNEAYFQKLMTTYGDKAYLHLAKVNIPQKLDQYRQQLILINQDITRTQAHQKKRLKKLEDQKASLERYITEFEGFTDQYPEEVVVAGILSISYGNVMEMLYAGMNDDFKKFYPQYLLYPNVFQDAYQDGIIWANMGGVEGSLDDGLTKFKANFAPTIEEFIGEFNLPVSPLYHIANTMYKIRKQLKNKH”, the “soluble on expression in E. coli” value is reported as “not soluble”.

For the origin of these results see the DeepSol protein solubility set.
